Assay results reported in US20210145860A1.

Molecular target: green fluorescent protein (GFP) [GFP: P42212]
Test: cell-based or functional assay

E3-ubiquitin ligase encoded by mRNA Construct G of Table 1 (ER signal-vhhGFP4-cereblon-FLAG-ER retention sequence), sequence (Q96SW2 whole entry): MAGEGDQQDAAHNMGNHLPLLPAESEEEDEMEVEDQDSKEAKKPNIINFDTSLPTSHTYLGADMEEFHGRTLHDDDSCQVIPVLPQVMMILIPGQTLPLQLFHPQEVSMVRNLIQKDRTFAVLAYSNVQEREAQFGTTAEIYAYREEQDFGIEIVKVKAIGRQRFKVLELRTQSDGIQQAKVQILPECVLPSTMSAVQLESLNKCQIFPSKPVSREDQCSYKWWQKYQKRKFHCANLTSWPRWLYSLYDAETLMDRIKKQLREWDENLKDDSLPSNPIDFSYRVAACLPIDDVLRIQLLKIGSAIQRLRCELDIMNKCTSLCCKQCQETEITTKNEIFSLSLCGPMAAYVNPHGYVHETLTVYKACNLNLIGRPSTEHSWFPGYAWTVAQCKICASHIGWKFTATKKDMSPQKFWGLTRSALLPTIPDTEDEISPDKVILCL

Question: For “E3-ubiquitin ligase encoded by mRNA Construct G of Table 1 (ER signal-vhhGFP4-cereblon-FLAG-ER retention sequence) (from UniProt Q96SW2 1-442)”, which decrease in GFP mean fluorescence intensity (MFI), flow cytometry of HeLa cells at 10:1 Construct G:GFP RNA is on record?
Answer: 46%
